# Laboratory results reported in paper PMC11257444 (bioRxiv, 2024).
# What was measured:
# Assay in all cases: SPR
# [1] = molecular target: ZIG-4 (purified, SPR) (C. elegans) (UniProt G5ECB1)
# [2] = molecular target: ZIG-5 (purified, SPR) (C. elegans) (UniProt Q9XXD7)
# [3] = molecular target: HIR-1 ectodomain (purified) (C. elegans) (UniProt O76385)
# [4] = molecular target: NRX-1 LNS6 domain (purified) (C. elegans)
# ZIG-5 (purified, SPR) = molecular target: T1, ZIG-5 (purified, SPR) (C. elegans, UniProt Q9XXD7 26-260)
# T1 sequence: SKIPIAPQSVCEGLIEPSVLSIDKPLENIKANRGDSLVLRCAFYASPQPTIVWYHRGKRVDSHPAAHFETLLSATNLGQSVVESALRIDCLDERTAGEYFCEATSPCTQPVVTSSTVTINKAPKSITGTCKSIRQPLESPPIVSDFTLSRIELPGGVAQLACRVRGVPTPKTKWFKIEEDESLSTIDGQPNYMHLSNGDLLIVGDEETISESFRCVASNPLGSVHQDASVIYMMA
# ZIG-4 (purified, SPR) = molecular target: T2, ZIG-4 (purified, SPR) (C. elegans, UniProt G5ECB1 17-253)
# T2 sequence: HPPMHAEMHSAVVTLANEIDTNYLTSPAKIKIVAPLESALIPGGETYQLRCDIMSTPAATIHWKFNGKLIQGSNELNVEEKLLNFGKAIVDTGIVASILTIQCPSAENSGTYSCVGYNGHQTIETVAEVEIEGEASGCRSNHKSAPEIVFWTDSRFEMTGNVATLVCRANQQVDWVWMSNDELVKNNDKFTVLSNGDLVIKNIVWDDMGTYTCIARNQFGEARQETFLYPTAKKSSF
molecule,measurement,setting,value
"INS-1 (purified, SPR) (ligand)",Kd,[1],> 1000 nM
same,Kd,[2],3 nM
B0222.11 (purified) (from UniProt Q4PIU5) (ligand),Kd,[3],0.5 nM
NLG-1 ectodomain (purified) (receptor) YDVRSVTTSWGMVRGEVVSPEGDDLPPVAQYLGIPYGVAPTGQYRFNMAISAAKWTHMPKDARKVSPVCIQTDMPELSETKAFKHTSAQRFDFNHRLLPHLKKQSEDCLYMNIYVPERLEISRDNYLPVMVIVHGEEYGWGTGNAFNGTTLAAYGHIIVVTLNYRLGVFGFLGRCESSSCSGNSGISDLVSALTMLNVILPSFGGDSKSVTLAGWGSGASLVSLLMASPLTQPGRRLFRRAILLDGSALSPWAISQNPQQYFMQLAEELACAPKNRTSSFNDNVDTIVRCMQVHSSENITKAVLKIDVPTFLSGFAPIVDGQLIPNKPQVSFSTQYGSLFREIDLLVGISSNPSHHMISNEDLKVGISKEKRMRIFRSLVRNLYDFHREEILASIINEYTDWENPRDHPKSIRNGVLNALSDVLYTAPLIETLRSHSADEVRKEANTFMFAFAHETRSWSQEQPNSGIRGSLSGDIVPYIFGYPLAQGDSEERLYSGFNTDDKGISKVMMHYVSNFVKSGDPSKPNPMSKNFPMGDVFHSTAWPQFDQPNREAYLEITDRPRVKNYYRNAQVGFWNNFIPQLHKNGKETEPVGEEHHLLSDHFRKDSYFGKTRHFSSYANLPFPPPPMPPSPPPELTTKPKPSESPTTLQTTTESEKAAAGSFTGKAL,Kd,[4],48000 nM
"INS-6 (purified, SPR) (ligand) VPAPGETRACGRKLISLVMAVCGDLCNPQEGKDIATECCGNQCSDDYIRSACCP",Kd,"ZIG-5 (purified, SPR)",> 1000 nM
same,Kd,"ZIG-4 (purified, SPR)",0.056 nM
